Assay results reported in patent US20090214518A1.

Target: Endothelin B receptor (ETRB) (human) (UniProt P24530)
Experiment: cell-based or functional assay

UniProt P24530, sequence (P24530 27-442 limits assumed): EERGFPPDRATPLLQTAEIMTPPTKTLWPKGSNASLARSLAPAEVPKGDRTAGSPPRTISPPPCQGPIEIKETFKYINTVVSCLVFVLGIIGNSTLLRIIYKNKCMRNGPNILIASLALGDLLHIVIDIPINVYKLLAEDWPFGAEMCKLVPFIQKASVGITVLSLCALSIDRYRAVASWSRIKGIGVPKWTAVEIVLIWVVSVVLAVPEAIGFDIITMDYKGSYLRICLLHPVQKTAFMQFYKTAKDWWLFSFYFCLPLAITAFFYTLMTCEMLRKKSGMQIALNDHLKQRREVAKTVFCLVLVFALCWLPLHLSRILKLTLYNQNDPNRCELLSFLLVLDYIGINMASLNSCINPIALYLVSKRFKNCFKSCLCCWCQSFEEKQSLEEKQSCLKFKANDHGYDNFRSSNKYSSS

ICAM-1 mRNA in HUVEC (qRT-PCR): > 7 fold | adherence of activated human T cells to HUVEC: 40%
Substance: ETRB antagonist peptide, BQ-788
